Test results as given in publication doi:10.1101/2022.06.15.496229.

Legend:
[1] = molecular target: DHR2 domain of human DOCK10 (DOCK10^DHR2, residues 1695-2151) (human) (UniProt Q96BY6); experiment: SEC-MALS
[2] = molecular target: DHR2 domain of human DOCK10 (DOCK10^DHR2, residues 1695-2151) (human) (UniProt Q96BY6); experiment: ITC

Chain of DHR2 domain of human DOCK10 (DOCK10^DHR2, residues 1695-2151) (human) (Q96BY6 1695-2151): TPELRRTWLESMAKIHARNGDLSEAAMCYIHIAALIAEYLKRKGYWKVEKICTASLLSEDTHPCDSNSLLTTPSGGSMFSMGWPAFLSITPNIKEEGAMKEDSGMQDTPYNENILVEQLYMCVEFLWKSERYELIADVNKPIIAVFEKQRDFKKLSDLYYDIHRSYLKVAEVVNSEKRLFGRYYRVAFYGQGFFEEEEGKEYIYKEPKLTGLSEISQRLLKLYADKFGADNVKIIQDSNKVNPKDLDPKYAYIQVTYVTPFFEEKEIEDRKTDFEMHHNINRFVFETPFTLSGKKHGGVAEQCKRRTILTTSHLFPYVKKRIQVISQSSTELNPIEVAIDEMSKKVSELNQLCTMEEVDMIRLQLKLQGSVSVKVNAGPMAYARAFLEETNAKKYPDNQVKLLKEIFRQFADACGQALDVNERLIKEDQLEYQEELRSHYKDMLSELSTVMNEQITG

**Q.** Which stoichiometry N (DOCK10^DHR2 per RAC1) [1] does the source give for “RAC1 (residues 1-192) (from UniProt P63000 1-192) (natural protein)” here?
**A.** 2

**Q.** With “RAC3 (residues 1-192) (from UniProt P60763 1-192) (natural protein)” as the substance, how does the dH [2] read?
**A.** -8.59 kJ/mol
